Key:
Recombinant AR-LBD = biological target: T1, Recombinant AR-LBD (human, UniProt P10275 672-920); assay: SPR
T1 sequence (looked up): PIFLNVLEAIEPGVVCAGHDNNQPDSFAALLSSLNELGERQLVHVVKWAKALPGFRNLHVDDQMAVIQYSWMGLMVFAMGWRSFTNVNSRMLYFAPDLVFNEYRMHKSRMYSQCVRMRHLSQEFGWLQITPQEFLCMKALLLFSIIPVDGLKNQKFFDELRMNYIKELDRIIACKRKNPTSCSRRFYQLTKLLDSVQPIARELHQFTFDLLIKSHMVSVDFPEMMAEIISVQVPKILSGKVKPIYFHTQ

Recombinant ERα-LBD = biological target: T2, Recombinant ERα-LBD (human, UniProt P03372 302-595); assay: SPR
T2 sequence (looked up): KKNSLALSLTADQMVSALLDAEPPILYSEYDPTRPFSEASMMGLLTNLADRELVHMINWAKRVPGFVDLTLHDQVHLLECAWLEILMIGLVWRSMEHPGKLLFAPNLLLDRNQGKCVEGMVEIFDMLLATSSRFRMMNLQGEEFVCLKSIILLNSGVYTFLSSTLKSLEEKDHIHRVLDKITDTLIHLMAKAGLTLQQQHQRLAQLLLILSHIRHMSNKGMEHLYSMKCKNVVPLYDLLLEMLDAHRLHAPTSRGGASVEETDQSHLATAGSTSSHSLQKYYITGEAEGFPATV

binding result (Recombinant AR-LBD): binds
binding result (Recombinant ERα-LBD): binds
Binder: KPEWPAAELLLSLLGRLLVHQFSNKSTE [human NIPBL-C2^WT peptide]
